In article PMC10641686, “Fcγ receptor binding is required for maximal immunostimulation by CD70-Fc” (Frontiers in Immunology, 2023) one finds Kd, stoichiometry N and OT-I T cell expansion in vivo during the primary response, Endo H treated dtCD70-Fc (wild-type Fc) against Endo H treated dtCD70-Fc(D265A) data, which are given here for 4 molecules.

Where two headings read alike, the source gives them in different places.

Test [1] has as its target T1, Recombinant mouse CD27-human Fc (mouse, UniProt P41272 24-182).
T1 construct: CD27, mouse; Captured by anti-human IgG on the chip; no catalogue number is printed; also called CD27-Fc; mouse CD27 protein; source: bought: R&D systems
T1 sequence (looked up): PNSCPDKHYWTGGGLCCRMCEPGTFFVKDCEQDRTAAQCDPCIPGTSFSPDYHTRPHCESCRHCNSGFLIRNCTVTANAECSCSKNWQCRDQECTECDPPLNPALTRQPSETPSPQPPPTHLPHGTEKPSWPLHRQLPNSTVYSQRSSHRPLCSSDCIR
In words: SPR; apparent; Biacore T200, HBS-EP+; mouse CD27-human Fc captured on anti-human IgG coupled to a CM5 chip; CD70 fusion proteins (1.56, 6.25, 25 and 100 nM) injected at 30 ul/min; KD from ka and kd. (In SPR one partner is held on a chip, and binding of the other changes the refractive index at the surface.)

Test [2] has as its target dimer of trimer CD70-Fc fusion protein (dtCD70-Fc) (mouse) (UniProt O55237). In words: SDS-PAGE under non-reducing and reducing conditions; 5 ug purified protein on a 10% SDS-polyacrylamide gel, Coomassie blue; disulfide-linked dimer of the Fc fusion chain.
Test [3] has as its target FcγRs (mouse (endogenous in C57BL/6 mice)).
Test [4] deals with anti-CD27 mouse IgG1 (recombinant, from hybridoma AT124-1) (mouse). The experiment in a line: SPR; about 2000 RU of dtCD70-Fc or anti-CD27 immobilised on a CM5 chip by amine coupling; mouse FcRn (0, 0.8, 4, 20, 100, 500 nM) injected 3 min at 30 ul/min in HBS-EP+ pH 6; KD from steady-state binding levels.
The target of test [5] is dimer of trimer CD70-Fc fusion protein (dtCD70-Fc) (mouse) (UniProt O55237). Described as above.

By stoichiometry N is commonly meant a count of units in the complex or per binding partner. In the case of “dimer of trimer CD70-Fc fusion protein (dtCD70-Fc) (from UniProt O55237 41-195; O55237 41-195; O55237 41-195)”, the Kd in test [1] was 0.6 nM. The same molecule had a stoichiometry N in test [2] of 2. Regarding “Endo H treated dtCD70-Fc (from UniProt O55237 41-195; O55237 41-195; O55237 41-195) (Fc fusion)”, the OT-I T cell expansion in vivo during the primary response, Endo H treated dtCD70-Fc (wild-type Fc) against Endo H treated dtCD70-Fc(D265A) in test [3] amounted to 3 fold.

B1: Soluble trimeric CD70 (tCD70) (ligand, mouse, UniProt O55237 41-195, looked up)
chain: SGLLSKQQQRLLEHPEPHTAELQLNLTVPRKDPTLRWGAGPALGRSFTHGPELEEGHLRIHQDGLYRLHIQVTLANCSSPGSTLQHRATLAVGICSPAAHGISLLRGRFGQDCTVALQRLTYLVHGDVLCTNLTLPLLPSRNADETFFGVQWICP
notes: CD70, mouse, extracellular domain S41-P195; Predicted chain MW 51.5 kDa; also called CD4 fusion protein; not shown: CD4 domains 3 and 4 (mouse), N-terminal, kept
Consider B1, for which the Kd in test [1] (both partners purified) came out at 1.2 nM.

B2: recombinant mouse FcRn (receptor)
chain: SETRPPLMYHLTAVSNPSTGLPSFWATGWLGPQQYLTYNSLRQEADPCGAWMWENQVSWYWEKETTDLKSKEQLFLEALKTLEKILNGTYTLQGLLGCELASDNSSVPTAVFALNGEEFMKFNPRIGNWTGEWPETEIVANLWMKQPDAARKESEFLLNSCPERLLGHLERGRRNLEWKEPPSMRLKARPGNSGSSVLTCAAFSFYPPELKFRFLRNGLASGSGNCSTGPNGDGSFHAWSLLEVKRGDEHHYQCQVEHEGLAQPLTVDLDSSARSS
For B2, the Kd in test [4] stood at 49 nM; in test [5] it was 46 nM.
